The results in this text go back to patent publication US20240409645A1 (DUALYX, published 2024).

In assay [1] the target is T1, human IL-2Rγ (common cytokine receptor γ-chain) (human, UniProt P31785 23-262, limits assumed).
T1 construct: Recombinant protein coated on the plate or immobilised on a CM5 chip; also called hu IL-2R; CD132
T1 sequence: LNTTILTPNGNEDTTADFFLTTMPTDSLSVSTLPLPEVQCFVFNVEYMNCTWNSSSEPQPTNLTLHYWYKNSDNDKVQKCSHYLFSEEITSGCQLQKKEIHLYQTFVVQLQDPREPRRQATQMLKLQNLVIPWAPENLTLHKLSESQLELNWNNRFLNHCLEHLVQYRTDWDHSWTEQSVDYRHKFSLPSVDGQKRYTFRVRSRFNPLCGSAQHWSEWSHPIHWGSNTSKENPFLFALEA
Description: PE binding ELISA, periplasmic extract on coated protein. Here is the method: (§1) In a binding ELISA, human or mouse IL-2Rα, IL-2Rβ and IL-2Rγ proteins were coated directly on maxisorp microtiter plates overnight at 4° C. Free binding sites were blocked using 4% Marvel in PBS for 1 hour. Next, 1:5 dilution of P.E. in 1% Marvel/PBS were added to wells and incubated for 1 hour. […] Binding specificity was determined based on O.D. at 450 nm values compared to negative controls.

In assay [2] the target is T1, human IL-2Rγ (common cytokine receptor …). Nature of the assay: SPR off-rate ranking, periplasmic extract on immobilised protein. Here is the method:
(§2) SPR was performed to determine dissociation rates using Biacore 3000 instrument (GE Healthcare). Briefly, human and mouse IL-2R proteins were immobilized on carboxylmethyl dextran sensor chip (CM5) at approximately 2500 RUs using amine coupling in acetate buffer (GE Healthcare). The VHH-containing P.E. were loaded with a flow rate of 30 uL/min and the off-rates were measured over a 120s period.

For assay [3], the target named is T2, human IL-2Rα (human, UniProt P01589 22-240, limits assumed).
T2 construct: recombinant protein; also called hu IL-2R; human IL-2Ra
T2 sequence: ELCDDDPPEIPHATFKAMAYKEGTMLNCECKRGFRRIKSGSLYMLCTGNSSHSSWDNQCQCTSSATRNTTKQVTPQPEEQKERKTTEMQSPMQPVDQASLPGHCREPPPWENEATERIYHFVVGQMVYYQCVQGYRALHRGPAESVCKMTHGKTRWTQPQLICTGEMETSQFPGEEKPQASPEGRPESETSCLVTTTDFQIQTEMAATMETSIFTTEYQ
Nature of the assay: ELISA, P.E. on coated antigen. As to the method: as §1
(An ELISA detects its analyte on a solid surface through an enzyme-linked reagent.)

Assay [4] concerns the target T2, human IL-2Rα. Description: SPR, P.E. on immobilised antigen. Here is the method:
as §2

Changes are numbered by the printed parent chain.

B1: 33-MP04C09 (VHH)
VHH: QLQLVESGGGLVQAGGSLRLSCAASGPTFSRVAVGWFRQAPGKEREFVAAVNRPATMTKYADSVKGRFTVSRDNAKNTVDLQMNSMKPEDTAVYYCAADSVPYGRPYYWQTSAGDYDYWGQGTQVTVSS
notes: VHH in periplasmic extract; also called FJ1427_P035MP04C09; clone nr
For orientation: koff means the first-order rate constant of dissociation. Lower therefore signals a long-lived complex. With B1, the “OD (PE binding ELISA)” value in assay [1] was found to be 1.69 OD450 nm. For the same molecule, in assay [2], the koff is 0.031 s⁻¹.

B2: FJ1427_P035MP04A09 (VHH)
VHH: QVQLVESGGGLVQAGGSLRLSCAASGRTFGAVAVGWFRQVPGKEREFVAAINRNGSATKYADSAKGRFTISRDNAESPVYLQMNSLKPEDTAIYYCAADSLPYGRPYYFQTSAGEYDYWGQGTQVTVSS
notes: VHH in periplasmic extract; also called clone nr
Regarding B2, the “OD (PE binding ELISA)” value in assay [1] is 1.23 OD450 nm. The koff in assay [2] was 0.0576 s⁻¹.

B3: FJ1427_P035MP01D09 (VHH)
VHH: QVQLVESGGGLVQPGGSLRLSCAASGFTFSNNFMSWVRQAPGKGLEWVSTISYGGESTTYAESVKGRFTISRDNAKNTLYLQMNNLKPEDTAVYYCAKATSYDSIRSGSRGQGTQVTVSS
notes: periplasmic extract; also called clone nr; 68
Consider B3, for which, in the assay with human IL-2Rα [3], the “OD (PE binding ELISA)” value was found to be 2.57 OD450 nm. Besides, in the assay with human IL-2Rα [4], the koff is 0.00212 s⁻¹.

B4: FJ1427_P035MP01G04 (VHH)
VHH: B3 VHH with G54F, E56D, T59R, A75E, Y80H, Q112R
notes: periplasmic extract; also called clone nr; 31
In the case of B4, in the assay with human IL-2Rα [3], the “OD (PE binding ELISA)” value amounted to 2.79 OD450 nm. Also, the koff with human IL-2Rα [4] worked out at 0.00107 s⁻¹.

B5: FJ1427_P035MP01H05 (VHH)
VHH: B3 VHH with Q1E, G54F, E56D, Q112R
notes: periplasmic extract; also called clone nr; 40
In the case of B5, the “OD (PE binding ELISA)” value with human IL-2Rα [3] was found to be 2.65 OD450 nm. In the assay with human IL-2Rα [4], this molecule showed a koff of 0.00276 s⁻¹.

B6: FJ1427_P035MP01F03 (VHH)
VHH: B3 VHH with I105V
notes: periplasmic extract; also called clone nr; 22
Turning to B6, the “OD (PE binding ELISA)” value with human IL-2Rα [3] turned out to be 2.87 OD450 nm. In addition, the koff with human IL-2Rα [4] stood at 0.00327 s⁻¹.

B7: FJ1427_P035MP01D03 (VHH)
VHH: B3 VHH with Q1E, A24T, S30R, K43E
notes: periplasmic extract; also called clone nr; 20
Take B7: the “OD (PE binding ELISA)” value with human IL-2Rα [3] came out at 2.59 OD450 nm. In addition, the koff with human IL-2Rα [4] amounted to 0.00189 s⁻¹.

B8: FJ1427_P035MP01C03 (VHH)
VHH: B3 VHH with Q1E, A24T, S30R
notes: periplasmic extract; also called clone nr; 19
For B8, the “OD (PE binding ELISA)” value with human IL-2Rα [3] was found to be 2.84 OD450 nm. Further, in the assay with human IL-2Rα [4], the koff turned out to be 0.00144 s⁻¹.

B9: 2-MP01A02 (VHH)
VHH: B3 VHH with A24T, S30R
notes: periplasmic extract; also called FJ1427_P035MP01A02
Turning to B9, in the assay with human IL-2Rα [3], the “OD (PE binding ELISA)” value turned out to be 2.62 OD450 nm. Besides, the koff in the assay with human IL-2Rα [4] turned out to be 0.00153 s⁻¹.

B10: FJ1427_P035MP01E11 (VHH)
VHH: B3 VHH with G54F, E56D, T59R, A75E, Q112R
notes: periplasmic extract; also called clone nr; 85
For B10, in the assay with human IL-2Rα [3], the “OD (PE binding ELISA)” value amounted to 2.69 OD450 nm. Also, in the assay with human IL-2Rα [4], the koff was 0.000704 s⁻¹.

B11: 8-MP01C12 (VHH)
VHH: B3 VHH with A24T, W47F, S63A, V93I, D103T, S107G, G108A, S109P
notes: periplasmic extract; also called FJ1427_P035MP01C12
Regarding B11, in the assay with human IL-2Rα [3], the “OD (PE binding ELISA)” value worked out at 2.53 OD450 nm. In the assay with human IL-2Rα [4], this molecule returned a koff of 0.000383 s⁻¹.

B12: FJ1427_P035MP04F02 (VHH)
VHH: QLQLVESGGGLVQAGGSLTLSCAASGRTFSRDVVGWFRQAPGKEREFVASISRSGDGTFYTDSVKGRFTISSRDNAKNTVLLQMNSLKVEDTAVYYCAAGDGWSTYDYWGQGTQVTVSS
notes: as for B2
Turning to B12, in assay [1], the “OD (PE binding ELISA)” value came out at 0.196 OD450 nm. For the same molecule, the koff in assay [2] was 0.0026 s⁻¹.

B13: FJ1427_P035MP01H10 (VHH)
VHH: QVQLVESGGGLVETGGSLRLSCAASGITFNDHTMAWFRQAPGKEREFVAARDWSDIITRYASSVKGRFTISRDNAGNTGFLQMNSLRPEDTAVYYCAAREGGVVAGVRSGAPYDYWGQGTQVTVSS
notes: periplasmic extract; also called clone nr; 80
B13: the “OD (PE binding ELISA)” value with human IL-2Rα [3] was 2.47 OD450 nm.

B14: FJ1427_P035MP04A04 (VHH)
VHH: QVQLVESGGGLVQAGESLRLSCAASGPTASRVAVAWFRQVPGKEREFVAVVNRPGTMTKYADSVKGRFTISRDSAKNTVYLQMNSLKPEDTAVYYCAADSVPYGRPYYFQTSAGNYDYWGQGTQVTVSS
notes: as for B2
With B14, the “OD (PE binding ELISA)” value in assay [1] came out at 1.31 OD450 nm. The same molecule came in with a koff in assay [2] of 0.0378 s⁻¹.

B15: FJ1427_P035MP04A11 (VHH)
VHH: B14 VHH
notes: as for B2
Take B15: the “OD (PE binding ELISA)” value in assay [1] came out at 0.593 OD450 nm. For the same molecule, the koff in assay [2] was 0.0165 s⁻¹.

B16: FJ1427_P035MP04D08 (VHH)
VHH: B14 VHH
notes: as for B2
Turning to B16, in assay [1], the “OD (PE binding ELISA)” value worked out at 0.579 OD450 nm. Further, the koff in assay [2] was found to be 0.0195 s⁻¹.

B17: FJ1427_P035MP04G09 (VHH)
VHH: B1 VHH with L2V, V5Q, A40V, V70I, W109F, D115E
notes: as for B2
Turning to B17, the “OD (PE binding ELISA)” value in assay [1] worked out at 0.559 OD450 nm. In addition, the koff in assay [2] was determined as 0.0658 s⁻¹.

B18: FJ1427_P035MP04H08 (VHH)
VHH: B14 VHH with Q1E
notes: as for B2
Turning to B18, the “OD (PE binding ELISA)” value in assay [1] was 1.3 OD450 nm. In assay [2], this molecule showed a koff of 0.048 s⁻¹.

B19: FJ1427_P035MP04B03 (VHH)
VHH: B14 VHH with V5Q
notes: as for B2
On to B19, for which, in assay [1], the “OD (PE binding ELISA)” value stood at 1.37 OD450 nm. Besides, the koff in assay [2] was found to be 0.0421 s⁻¹.

B20: FJ1427_P035MP04C11 (VHH)
VHH: B14 VHH with A14H, E16G, A29F, A35G, T56S, T69N, S74T, Q110T, N115D
notes: as for B2
Consider B20, for which the “OD (PE binding ELISA)” value in assay [1] came out at 0.912 OD450 nm. This molecule returned a koff in assay [2] of 0.0693 s⁻¹.

B21: 1-MP01H01 (VHH)
VHH: EVQLVESGGGLVQAGGSLRLSCAASGRTFRTHNMGWFRRAPGKEREFVAAISWNVDNTLYADSVKGRFTISRDNGRNMVYLQMNSLKPEDTAVYYCAADNIPLSSDVAATATEYDYWGQGTQVTVSS
notes: periplasmic extract; also called FJ1427_P035MP01H01
As to B21, in the assay with human IL-2Rα [3], the “OD (PE binding ELISA)” value came out at 1.71 OD450 nm. In the assay with human IL-2Rα [4], this molecule displayed a koff of 0.0229 s⁻¹.

B22: FJ1427_P035MP01H11 (VHH)
VHH: B21 VHH with E1Q, G75D, Y95F, A108R, Y114F, D115G, Q122R
notes: periplasmic extract; also called clone nr; 88
Regarding B22, the “OD (PE binding ELISA)” value in the assay with human IL-2Rα [3] was determined as 2.62 OD450 nm. This molecule showed an off-rate constant (koff) with human IL-2Rα [4] of 0.000725 s⁻¹.

B23: FJ1427_P035MP01G01 (VHH)
VHH: B21 VHH with E1Q, V5Q, G75D, Y95F, A108R, Y114F, D115G, Q122R
notes: periplasmic extract; also called clone nr
Consider B23, for which the “OD (PE binding ELISA)” value in the assay with human IL-2Rα [3] was determined as 2.52 OD450 nm. In the assay with human IL-2Rα [4], this molecule registered a koff of 0.000414 s⁻¹.

B24: FJ1427_P035MP01H08 (VHH)
VHH: B21 VHH with G10R, A14S, T28A, R30S, T58K, D62N, T69A, V107M, A108R, Y116V
notes: periplasmic extract; also called clone nr; 64
Consider B24, for which, in the assay with human IL-2Rα [3], the “OD (PE binding ELISA)” value was found to be 2.6 OD450 nm.

B25: FJ1427_P035MP01E05 (VHH)
VHH: B21 VHH with E1Q, K43E, A50V, T58K, A108R, Y114F, D115G
notes: periplasmic extract; also called clone nr; 37
For the molecule B25, the “OD (PE binding ELISA)” value with human IL-2Rα [3] was determined as 2.59 OD450 nm. The molecule further had a koff with human IL-2Rα [4] of 0.000498 s⁻¹.

B26: FJ1427_P035MP01D08 (VHH)
VHH: B21 VHH with R27G, H32R, I51V, T58K, D62G, V107M, A108R, A109P
notes: periplasmic extract; also called clone nr; 60
On to B26, for which the “OD (PE binding ELISA)” value in the assay with human IL-2Rα [3] was 2.62 OD450 nm. Further, the koff in the assay with human IL-2Rα [4] is 0.000842 s⁻¹.
